Test results from publication PMC6472409, “Dishevelled-3 conformation dynamics analyzed by FRET-based biosensors reveals a key role of casein kinase 1” (Nature Communications, 2019).
Residue numbers refer to the chain shown, from its start. Where a SMILES comes first, the peptide text is derived from it. [ ]: non-standard residue; d: D form. The star is where a group is joined. FITC = O=C1OC2(c3ccc(O)cc3Oc3cc(O)ccc32)c2ccc(NC(=S)*)cc21; pS = N[C@@H](COP(=O)(O)O)C(=O)O; Ahx = NCCCCCC(=O)O

What was measured:
[1] = target: FITC-labeled peptide corresponding to the DVL3 FRMA region, non-phosphorylated (fluorescence anisotropy) (human); assay: fluorescence polarisation; fluorescence anisotropy, 50 nM FITC-labeled peptide with recombinant His-tagged human CK1ε, 30 min at 37 °C, 384-well plates
[2] = target: FITC-labeled peptide corresponding to the DVL3 RGPR region, non-phosphorylated (fluorescence anisotropy) (human); assay: as above
[3] = target: FITC-labeled peptide corresponding to the DVL3 RGCF region, non-phosphorylated (fluorescence anisotropy) (human); assay: as above
[4] = target: recombinant His-tagged human CK1ε (Homo sapiens, UniProt P49674); assay: Fluorescence anisotropy (FA) binding of FITC-labeled peptides; conditions: FITC-Ahx peptide 50 nM, 30 min, 37 °C; n=3; read-out: affinity for recombinant CK1ε (fluorescence anisotropy)
recombinant His-tagged human CK1ε, sequence (P49674 whole entry): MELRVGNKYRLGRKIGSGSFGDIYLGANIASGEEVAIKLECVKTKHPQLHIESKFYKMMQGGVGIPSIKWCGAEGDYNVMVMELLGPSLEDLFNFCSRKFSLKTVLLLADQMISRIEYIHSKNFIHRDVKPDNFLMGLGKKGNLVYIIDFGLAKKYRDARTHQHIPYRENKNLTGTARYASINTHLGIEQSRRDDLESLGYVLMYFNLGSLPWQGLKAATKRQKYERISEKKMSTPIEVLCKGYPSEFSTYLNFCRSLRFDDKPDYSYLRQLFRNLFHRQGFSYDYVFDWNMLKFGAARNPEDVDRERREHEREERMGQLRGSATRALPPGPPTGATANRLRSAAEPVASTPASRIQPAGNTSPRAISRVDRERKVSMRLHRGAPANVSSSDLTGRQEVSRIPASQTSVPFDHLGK
From the text: The peptides used in the fluorescent polarization (FA) binding assays were synthesized at Pepscan B.V. (Lelystad, Netherlands). The sequences of these peptides (indicated in Supplementary Fig. 4a) were amidated at their C-termini, and their N-termini were acylated with 6-aminocaproic acid (Ahx) modified with fluorescein isothiocyanate (FITC). The peptides used in the NMR/SPR studies were purchased from KareBay Biochem, Inc. (New Jersey, USA). The peptides for the NMR/SPR studies contained no terminal modifications.
Data were recorded at 37 °C using Tecan Infinite F500 (Tecan Systems, Germany). FITC-labeled peptides were dissolved in DMSO and added to 384-well plates (Corning) to a total volume of 20 μl (peptide final concentration was 50 nM). Incubation with recombinant His-tagged human CK1ε (MyBioSource, #MBS964562) was performed for 30 min at 37 °C. Then, fluorescence intensities were collected simultaneously by detection at 535/590 and 485/535 nm excitation/emission wavelengths, respectively, followed by adjustment to the blank controls.

[5] = target: T1, PDZ domain of human DVL2 (aa 265–361), phosphorylation-mimicking variant S286E + S329E (human, UniProt O14641 265-361, S286E | S329E); assay: NMR
T1 sequence: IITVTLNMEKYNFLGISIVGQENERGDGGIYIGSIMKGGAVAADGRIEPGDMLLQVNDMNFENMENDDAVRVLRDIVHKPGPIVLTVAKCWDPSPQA

[6] = target: T2, PDZ domain of human DVL2 wild type (aa 265–361) (human, UniProt O14641 265-361); assay: NMR
T2 chain: T1 sequence with E22S, E65S

[7] = target: T3, PDZ domain of human DVL2 (aa 265–361), phosphorylation-mimicking variant S286E + S329E (human, UniProt O14641 265-361, S286E | S329E); assay: SPR; Biacore T200, PDZ immobilized on CM5 chip by amino coupling, peptide injected at increasing concentrations to steady state; one-site equilibrium fit, apparent KD; conditions: both partners purified
T3 construct: Dishevelled-2, human, PDZ domain aa 265-361 with S286E and S329E; 15N-labeled for NMR; also called S286E/S329E PDZ; PDZ phosphomimicking variant; source: E. coli BL21 (DE3), purified (Ni-NTA, TEV cleavage, ion exchange, size exclusion); not shown: His6, N-terminal, cleaved; lipoyl domain, N-terminal, cleaved
T3 sequence (looked up): T1 sequence

[8] = target: T4, PDZ domain of human DVL2 wild type (aa 265–361) (human, UniProt O14641 265-361); assay: as above; conditions: both partners purified
T4 construct: Dishevelled-2, human, PDZ domain aa 265-361; 15N-labeled (13C/15N for assignment) for NMR; S286 and S329 correspond to S268 and S311 of human DVL3; also called DVL2 PDZ wild type; PDZ wt; source: E. coli BL21 (DE3), purified (Ni-NTA, TEV cleavage, ion exchange, size exclusion); not shown: His6, N-terminal, cleaved; lipoyl domain, N-terminal, cleaved
T4 sequence (looked up): T1 sequence with E22S, E65S

[9] = target: T3, PDZ domain of human DVL2 (aa 265–361), …; assay: NMR titration; 1H,15N HSQC series, 100 μM 15N-labeled PDZ with increasing amounts of peptide; 20 mM HEPES pH 6.8, 50 mM KCl; apparent KD from three fast-exchange cross-peaks; conditions: both partners purified

recombinant His-tagged human CK1ε (MyBioSource, #MBS964562) (from UniProt P49674 1-416) (enzyme)
Kd [1]: 1000 nM | Kd [2]: 1000 nM | Kd [3]: 1000 nM

CC(C)C[C@H](NC(=O)[C@@H](NC(=O)[C@H](Cc1ccccc1)NC(=O)[C@H](CS)NC(=O)CNC(=O)[C@H](CCCNC(=N)N)NC(=O)[C@@H]1CCCN1C(=O)[C@H](CO)NC(=O)[C@@H]1CCCN1C(=O)CCCCCNC(=S)Nc1ccc2c(c1)C(=O)OC21c2ccc(O)cc2Oc2cc(O)ccc21)[C@@H](C)O)C(=O)N1CCC[C@H]1C(=O)N[C@@H](CCCNC(=N)N)C(=O)N[C@@H](CO)C(=O)N[C@@H](CCC(=O)O)C(N)=O [RGCF] ({FITC-Ahx}-PSPRGCFTLPRSE-NH2)
Kd [4]: ~1000 nM

CSCC[C@H](NC(=O)[C@H](C)NC(=O)[C@H](CCSC)NC(=O)[C@H](CCCNC(=N)N)NC(=O)[C@H](Cc1ccccc1)NC(=O)[C@H](CO)NC(=O)[C@H](CCC(N)=O)NC(=O)[C@H](CCCNC(=N)N)NC(=O)CCCCCNC(=S)Nc1ccc2c(c1)C(=O)OC21c2ccc(O)cc2Oc2cc(O)ccc21)C(=O)NCC(=O)N[C@@H](CC(N)=O)C(N)=O [FRMA] ({FITC-Ahx}-RQSFRMAMGN-NH2)
Kd [4]: ~1000 nM

CC(C)C[C@H](NC(=O)[C@H](CO)NC(=O)[C@H](CO)NC(=O)CCCCCNC(=S)Nc1ccc2c(c1)C(=O)OC21c2ccc(O)cc2Oc2cc(O)ccc21)C(=O)N[C@@H](CCCNC(=N)N)C(=O)NCC(=O)N1CCC[C@H]1C(=O)N[C@@H](CCCNC(=N)N)C(=O)N[C@@H](CCC(=O)O)C(=O)N[C@@H](CCCNC(=N)N)C(=O)N[C@@H](C)C(=O)N1CCC[C@H]1C(=O)N[C@@H](CO)C(=O)N[C@@H](CCC(=O)O)C(N)=O [RGPR] ({FITC-Ahx}-SSLRGPRERAPSE-NH2)
Kd [4]: ~1000 nM

B1: phosphorylated (pS700) C-terminal peptide derived from DVL3 (aa 698–716) (peptide, UniProt Q92997 698-716, looked up)
peptide: H-RQ[pS]FRMAMGNPSEFFVDVM-OH
notes: Dishevelled-3, human, C-terminal aa 698-716; the last seven residues are printed as EFFVDIM; also called DVL C-terminal peptide; C-terminal DVL peptide (pS700); source: synthetic peptide, bought: KareBay Biochem
Kd [5]: 625000 nM | Kd [6]: 296000 nM | fold lower affinity than PDZ wt [7]: 2 fold | binding result [8]: binds | fold weaker affinity than PDZ wt [9]: 2 fold
